Patent publication US20160257755A1 (TRACON PHARMACEUTICALS, published 2016)

T1: human CD105 (endoglin), R&D Systems Cat. No. 1097-EN (human, UniProt P17813 26-586)
T1 construct: Bought protein, captured on the plate by mouse anti-human CD105 (Southern Biotechnologies 9811-01); also called human endoglin
T1 sequence (looked up): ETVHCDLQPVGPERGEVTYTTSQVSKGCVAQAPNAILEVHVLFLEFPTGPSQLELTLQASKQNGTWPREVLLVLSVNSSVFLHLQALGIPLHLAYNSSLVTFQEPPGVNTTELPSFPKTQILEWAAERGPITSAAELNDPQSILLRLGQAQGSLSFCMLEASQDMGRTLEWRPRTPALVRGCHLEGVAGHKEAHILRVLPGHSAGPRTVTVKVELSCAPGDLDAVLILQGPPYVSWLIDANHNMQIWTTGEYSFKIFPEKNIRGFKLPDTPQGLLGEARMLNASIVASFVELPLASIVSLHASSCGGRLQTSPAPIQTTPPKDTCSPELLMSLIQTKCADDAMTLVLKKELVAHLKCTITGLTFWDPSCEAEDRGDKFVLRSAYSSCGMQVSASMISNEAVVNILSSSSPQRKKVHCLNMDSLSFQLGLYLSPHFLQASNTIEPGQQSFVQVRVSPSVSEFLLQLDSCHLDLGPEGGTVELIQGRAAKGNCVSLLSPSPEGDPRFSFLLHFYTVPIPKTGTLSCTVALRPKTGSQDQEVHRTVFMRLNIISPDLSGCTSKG

T2: recombinant endoglin (BIAcore analyte, Example 2) (UniProt P17813 26-586, limits assumed)
T2 sequence (looked up): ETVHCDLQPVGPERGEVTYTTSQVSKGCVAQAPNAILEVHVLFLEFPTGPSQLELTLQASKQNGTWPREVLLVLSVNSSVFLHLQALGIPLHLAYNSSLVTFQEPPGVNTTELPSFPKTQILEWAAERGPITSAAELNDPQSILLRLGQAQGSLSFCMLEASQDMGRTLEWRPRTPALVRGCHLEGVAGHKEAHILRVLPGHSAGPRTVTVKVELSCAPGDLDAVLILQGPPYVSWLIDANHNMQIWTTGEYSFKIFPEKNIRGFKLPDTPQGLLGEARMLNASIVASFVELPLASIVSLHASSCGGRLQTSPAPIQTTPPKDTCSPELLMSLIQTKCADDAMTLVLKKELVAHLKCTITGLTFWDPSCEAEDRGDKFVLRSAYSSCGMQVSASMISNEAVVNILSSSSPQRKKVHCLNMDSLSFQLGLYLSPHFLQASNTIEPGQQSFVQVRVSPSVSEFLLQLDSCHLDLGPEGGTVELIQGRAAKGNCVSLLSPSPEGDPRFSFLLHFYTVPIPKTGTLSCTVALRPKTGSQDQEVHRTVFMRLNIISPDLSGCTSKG

T3: mouse endoglin, R&D Systems Cat. No. 1320-EN-025 (mouse, UniProt Q63961 27-581)
T3 construct: Coated directly on the plate at 1 ug/ml; also called murine endoglin
T3 sequence (looked up): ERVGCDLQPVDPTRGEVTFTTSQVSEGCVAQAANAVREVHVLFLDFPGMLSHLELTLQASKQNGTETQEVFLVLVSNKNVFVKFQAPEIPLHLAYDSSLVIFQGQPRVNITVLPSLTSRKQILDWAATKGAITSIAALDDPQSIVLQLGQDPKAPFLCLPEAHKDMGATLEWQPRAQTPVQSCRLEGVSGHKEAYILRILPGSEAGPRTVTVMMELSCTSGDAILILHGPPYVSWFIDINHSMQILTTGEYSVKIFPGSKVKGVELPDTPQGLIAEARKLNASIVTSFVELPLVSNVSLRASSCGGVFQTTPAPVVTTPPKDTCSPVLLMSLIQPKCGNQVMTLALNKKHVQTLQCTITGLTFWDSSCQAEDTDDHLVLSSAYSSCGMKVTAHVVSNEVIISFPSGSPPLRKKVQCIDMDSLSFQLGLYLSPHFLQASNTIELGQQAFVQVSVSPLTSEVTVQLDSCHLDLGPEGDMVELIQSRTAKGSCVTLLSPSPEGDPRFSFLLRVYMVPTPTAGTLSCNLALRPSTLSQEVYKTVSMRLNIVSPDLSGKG


Tests used:
[1] = target: T1, human CD105 (endoglin), R&D Systems …; test: direct ELISA, biotinylated TRC205 on human CD105 captured by anti-CD105, streptavidin-HRP detection
Description: (§1) OD450 nm values were measured on a Dynex MRX TCII plate reader.

[2] = target: T1, human CD105 (endoglin), R&D Systems …; test: competition ELISA on captured human CD105, unlabelled TRC205 against biotinylated TRC205 (55 ng/ml); unlabelled TRC205 as competitor, in nM
Description: as §1

[3] = target: T2, recombinant endoglin (BIAcore analyte, …); test: SPR (BIAcore), antibody captured on protein A, recombinant endoglin as analyte
Description: Affinity of antibodies can be assessed using, for example, BIAcore analysis using standard protocols. Briefly, protein A is chemically coupled to a BIAcore CM5 chip, with the amount of protein A immobilized corresponding to 2000 RU. Subsequent steps are performed in a running buffer of 10 mM HEPES, 150 mM NaCl, 3 mM EDTA, 0.05% TWEEN, pH=7.4, at 25 degrees Celsius using a 10 Hz data collection rate. […] Start-up cycles are performed using running buffer at a flow rate of 40 μL/min, a contact time of 90 seconds and a dissociation time of 90 seconds. Sample cycles are performed using recombinant endoglin at concentrations ranging from 0 to 40 nM. Endoglin is passed over the BIAcore chip containing captured antibody at a flow rate of 40 μL/min with a contact time of 525 seconds and dissociation time of 2500 seconds. […] Regeneration of the chip is accomplished using 10 mM glycine pH=1.7. Data analysis is performed using BIAcore T100 Evaluation Software v1.1 Signals generated using BIAcore chips with different captured antibody densities are compared and data generated in the absence of recombinant endoglin are used to adjust for the intraassay blank signal. For fitting of the data, the Rₘₐₓ is allowed to float to account for variation in capture levels of each antibody in each cycle. Data from each capture density is fitted simultaneously during analysis of each antibody.

[4] = target: T1, human CD105 (endoglin), R&D Systems …; test: competition ELISA on captured human CD105 against biotinylated chimeric anti-CD105 (6.25 ng/ml); streptavidin-HRP/TMB, absorbance at 450 nm
Description: FIGS. 6A-6F. Anti-CD105 competition ELISA with humanized and humanized/deimmunized antibodies. […] Binding was detected via streptavidin-HRP and TMB substrate. Absorbance (OD) at 450 nm was measured on a plate reader and this was plotted against the test antibody concentration.
as §1

[5] = target: T3, mouse endoglin, R&D Systems Cat. No. …; test: competition ELISA on coated mouse endoglin, competitor biotinylated M1043 (40 ng/ml)
Description: Nunc Immuno MaxiSorp 96 well flat bottom plates (Fisher Cat. No. DIS-971-030J) were coated with mouse endoglin (R&D Systems, Cat. No. 1320-EN-025) at 1μg/ml in PBS overnight at 4° C. The following day the plate was washed three times with PBST before blocking with PBST/3% Marvel at room temperature for 1 hour. […] Binding of the biotinylated antibody was detected via streptavidin-HRP (Sigma, Cat. No. 55512) and TMB substrate (Sigma, Cat. No. T0440). OD450 nm values were measured on a Dynex MRX TCII plate reader.

[6] = target: T1, human CD105 (endoglin), R&D Systems …; test: competition ELISA on captured human CD105, human BMP9 against biotinylated TRC205 (55 ng/ml); human BMP9 as competitor, in nM
Description: as §1

[7] = target: T3, mouse endoglin, R&D Systems Cat. No. …; test: direct ELISA on coated mouse endoglin, anti-rat IgG peroxidase detection
Description: The following day the plate was washed three times with PBST before blocking with PBST/3% Marvel at room temperature for 1 hour. […] Binding of the antibodies was detected via anti-rat IgG peroxidase (Sigma, Cat. No. A9037) and TMB single solution substrate (Invitrogen, Cat. No. 00-2023). The reaction was stopped by adding 3 M HCl and OD450 nm values were measured on a Dynex MRX TCII plate reader.

Row | Binder | Kd [3] [nM] | koff [3] [s⁻¹] | kon [3] [M⁻¹ s⁻¹] | further results
1 | TRC205 antibody (antibody, IgG4, V domains shown, Humanized and deimmunized IgG4; also called biotinylated TRC205; unlabelled TRC205) VH: EVQLVESGGGLVKPGGSLRLSCAASGFTFSDAWMDWVRQAPGKGLEWVGEARSKASNHATYYAESVKGRFTISRDDSKNTLYLQMNSLKTEDTAVYYCTRWRRFFDSWGQGTLVTVSS VL: DIQMTQSPSSLSASVGDRATITCRASSSVSYMHWYQQKPGKAPKPWAYATSNLASGVPSRFSGSGSGTDYTLTISSLQPEDFATYYCQQWSSNPLTFGGGTKVEIK | – | – | – | EC50 [1]: 0.046 µg/mL; IC50 [2]: 1.7 nM
2 | humanized/deimmunized anti-endoglin antibody VK1AAVH1R (antibody, human IgG1, V domains shown) VH: EVQLVESGGGLVKPGGSLRLSCAASGFTFSDAWMDWVRQAPGKGLEWVGEIRSRASNHATYYAESVKGRFTISRDDSKNTLYLQMNSLKTEDTAVYYCTRWRRFFDSWGQGTLVTVSS VL: DIQMTQSPSSLSASVGDRATITCRASSSVSYMHWYQQKPGKAPKPWAYATSNLASGVPSRFSGSGSGTDYTLTISSLQPEDFATYYCQQWSSNPLTFGGGTKVEIK | 0.533 | 3.41e-05 | 64000 | –
3 | VK2SSVH1Q (antibody, V domains shown, humanized/deimmunized anti-endoglin antibody variant) VH: EVQLVESGGGLVKPGGSLRLSCAASGFTFSDAWMDWVRQAPGKGLEWVGEIRSQASNHATYYAESVKGRFTISRDDSKNTLYLQMNSLKTEDTAVYYCTRWRRFFDSWGQGTLVTVSS VL: DIQLTQSPSSLSASVGDRVTISCRASSSVSYMHWYQQKPGKAPKPWIYASSNLASGVPSRFSGSGSGTDYTLTISSLQPEDFATYYCQQWSSNPLTFGGGTKVEIK | – | – | – | binding result [4]: binds
4 | VK2SAVH1S (antibody, V domains shown, humanized/deimmunized anti-endoglin antibody variant) VH: EVQLVESGGGLVKPGGSLRLSCAASGFTFSDAWMDWVRQAPGKGLEWVSEIRSKASNHATYYAESVKGRFTISRDDSKNTLYLQMNSLKTEDTAVYYCTRWRRFFDSWGQGTLVTVSS VL: DIQLTQSPSSLSASVGDRVTISCRASSSVSYMHWYQQKPGKAPKPWAYATSNLASGVPSRFSGSGSGTDYTLTISSLQPEDFATYYCQQWSSNPLTFGGGTKVEIK | – | – | – | binding result [4]: binds
5 | VK2SSVH1S (antibody, V domains shown, humanized/deimmunized anti-endoglin antibody variant) VH: EVQLVESGGGLVKPGGSLRLSCAASGFTFSDAWMDWVRQAPGKGLEWVSEIRSKASNHATYYAESVKGRFTISRDDSKNTLYLQMNSLKTEDTAVYYCTRWRRFFDSWGQGTLVTVSS VL: DIQLTQSPSSLSASVGDRVTISCRASSSVSYMHWYQQKPGKAPKPWIYASSNLASGVPSRFSGSGSGTDYTLTISSLQPEDFATYYCQQWSSNPLTFGGGTKVEIK | – | – | – | binding result [4]: binds
6 | chimeric anti-endoglin antibody (TRC105) (antibody, V domains shown, also called chimeric anti-CD105; c-SN6j) VH: EVKLEESGGGLVQPGGSMKLSCAASGFTFSDAWMDWVRQSPEKGLEWVAEIRSKASNHATYYAESVKGRFTISRDDSKSSVYLQMNSLRAEDTGIYYCTRWRRFFDSWGQGTTLTVSS VL: QIVLSQSPAILSASPGEKVTMTCRASSSVSYMHWYQQKPGSSPKPWIYATSNLASGVPVRFSGSGSGTSYSLTISRVEAEDAATYYCQQWSSNPLTFGAGTKLELK | 0.6 | 3.28e-05 | 54700 | –
7 | mouse BMP9 (R&D Systems, Cat. No. 5566-BP-010) (ligand, UniProt Q9WV56 319-428, looked up) STGASSHCQKTSLRVNFEDIGWDSWIIAPKEYDAYECKGGCFFPLADDVTPTKHAIVQTLVHLKFPTKVGKACCVPTKLSPISILYKDDMGVPTLKYHYEGMSVAECGCR | – | – | – | binding result [5]: binds
8 | human BMP9 (R&D Systems Cat. No. 3209-BP-010) (ligand, UniProt Q9UK05 320-429, looked up) SAGAGSHCQKTSLRVNFEDIGWDSWIIAPKEYEAYECKGGCFFPLADDVTPTKHAIVQTLVHLKFPTKVGKACCVPTKLSPISVLYKDDMGVPTLKYHYEGMSVAECGCR | – | – | – | IC50 [6]: 14.6 nM
9 | M1043 antibody (antibody, rat IgG1, V domains shown, also called Antibody M1043; biotinylated M1043) VH: QVQLQQSGAELVKPGSSVKISCKASGYTFTSYDMHWIKQQPGNGLEWIGWIYPGNGNTKYNQKFNGKATLTADKSSSTAYMQLSSLTSEDSAVYFCARGKFGVGDYWGQGVMVTVSS VL: DTVLTQSPALAVSPGERVSISCRASEGVNSYMHWYQQKPGQQPKLLIYIASNLASGVPARFSGSGSGTDFTLTIDPVEADDTATYFCQQSWNDPYTFGAGTKLELKR | – | – | – | binding result [7]: binds

More lines, main results first:

Row | Kd [3] [nM] | koff [3] [s⁻¹] | kon [3] [M⁻¹ s⁻¹] | Binder | further results
10 | 0.706 | 3.25e-05 | 46000 | humanized/deimmunized anti-endoglin antibody VK1AAVH1A2 (antibody, V domains shown, It has the same variable domains as TRC205, which is IgG4) VH: EVQLVESGGGLVKPGGSLRLSCAASGFTFSDAWMDWVRQAPGKGLEWVGEARSKASNHATYYAESVKGRFTISRDDSKNTLYLQMNSLKTEDTAVYYCTRWRRFFDSWGQGTLVTVSS VL: DIQMTQSPSSLSASVGDRATITCRASSSVSYMHWYQQKPGKAPKPWAYATSNLASGVPSRFSGSGSGTDYTLTISSLQPEDFATYYCQQWSSNPLTFGGGTKVEIK | –
11 | 0.85 | 3.03e-05 | 35600 | humanized/deimmunized anti-endoglin antibody VK1AAVH1Q (antibody, human IgG1, V domains shown) VH: EVQLVESGGGLVKPGGSLRLSCAASGFTFSDAWMDWVRQAPGKGLEWVGEIRSQASNHATYYAESVKGRFTISRDDSKNTLYLQMNSLKTEDTAVYYCTRWRRFFDSWGQGTLVTVSS VL: DIQMTQSPSSLSASVGDRATITCRASSSVSYMHWYQQKPGKAPKPWAYATSNLASGVPSRFSGSGSGTDYTLTISSLQPEDFATYYCQQWSSNPLTFGGGTKVEIK | –
